# Reference: article PMC7398576
# B1: biotinylated p53-site oligonucleotide (dsDNA)
# DNA 1: TCGAGAGGCATGTCTAGGCATGTCTC
# DNA 2: GAGACATGCCTAGACATGCCTCTCGA
# Tests used:
# FLAG-p53 = FLAG-p53 (UniProt P04637 1-393); test: pull-down
# p53 wild type = p53 wild type (UniProt P04637 1-393); test: pull-down
# Sequence of p53 wild type (P04637 whole entry): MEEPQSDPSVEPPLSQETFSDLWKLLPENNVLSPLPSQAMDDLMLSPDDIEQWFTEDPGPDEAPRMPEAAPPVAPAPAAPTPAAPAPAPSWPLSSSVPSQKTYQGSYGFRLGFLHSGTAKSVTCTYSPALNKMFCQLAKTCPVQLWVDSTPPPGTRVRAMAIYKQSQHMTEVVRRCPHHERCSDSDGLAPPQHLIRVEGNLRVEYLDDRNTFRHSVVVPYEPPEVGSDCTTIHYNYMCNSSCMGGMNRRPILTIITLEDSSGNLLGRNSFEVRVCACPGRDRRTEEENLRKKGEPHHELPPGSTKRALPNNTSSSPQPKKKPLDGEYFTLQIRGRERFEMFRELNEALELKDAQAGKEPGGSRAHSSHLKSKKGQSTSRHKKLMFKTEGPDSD
# Sequence of FLAG-p53 (P04637 whole entry): as above
binder,measurement,setting,value
B1,binding result,FLAG-p53,binds
same,binding result,p53 wild type,binds
